“And” between values parts separate entries of the source, which are not always exact repeats. Equal entries are not always repeated.
Target: AVRPM3^b2/c2 lacking the signal peptide, C-terminally FLAG- or HA-tagged (Blumeria graminis f.sp. tritici)
Experiment: cross-linking

Substance: AVRPM3^b2/c2 lacking the signal peptide, C-terminally FLAG- or HA-tagged (natural protein)
- stoichiometry N: 2 and 3

From article doi:10.1101/2024.12.30.629670
